In the nanobody polyreactivity screen of Harvey et al. (2022):

Assay: yeast display, Sf9 membrane polyspecificity reagent, FACS + sequencing; frameworks hold sequencing errors
In short: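 Genes from sorted yeast were amplified by colony PCR, read by MiSeq 2 × 250 sequencing and filtered on CDR length. These cells carried a synthetic nanobody library in Saccharomyces cerevisiae BJ5465 and were sorted by FACS into low and high (top ~1%) gates on anti-HA and streptavidin fluorescence. Polyreactivity is labelled according to the gate of origin.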

| Sequence | polyreactivity (PSR sort gate) |
| --- | --- |
| QVQLVESGGGLVQAGGSLRLSCAASGRTFYVYAMGWYRQAPGKERELVAAISQDDGGTYYADSVKGRFTISRDNAKNTVYLQMNSLKPEDTAVYYCAAKEWRYGYDYGYWGQGTQVTVSS | low polyreactivity |
| QVQLVESGGGLVQAGGSLRLSCAASASIFPDNTMGWYRQAPGKERELVAAIDGRGGTTYYADSVKGRFTISRDNAKNTVYLQMNSLKPEDTAVYYCARDIGHSARYDYWGQGTQVTVSS | low polyreactivity |
| QVQLVESGGGLVQAGGSLRLSCAASGRTFYYNAMGWSRQAPGKEREFVARITRSGTNTYYADSVKGRFTISRDNAKNTVYLQMNSLKPEDTAVYYCARRGTSSYRRYWLDSASNMDYWGQGTQVTVSS | high polyreactivity |
| QVQLVESGGGLVQAGGGHRLSCAASGRTFTYNAMGWYRQAPGKERELVAAITSGGSTNYADSVKGRYTISRDNAKNTVYLQMNSLKPEDTAVYYCAADGDDYTTTEFDYWGQGTQVTVSS | low polyreactivity |
| QVQLVESVGGLVQAGGSLRLSCAASGGIFWVYAMGWYRQAPGKERELVADISIADSTNYADSVKGRFTISRDNAKNTVYLQMNSLKPEDTAVYYCNAVPSQHDEFDYWGQGTQVTVSS | low polyreactivity |
| QVQLVESGGGLVQAGGSLRLSCAASGSTFFANVMGWYRQAPGKEREFVAAINYRTGSTHYSDSVKGRFTISRDNAKNTVYLQMNSLKPEDTAVYYCAVYYQYTDVYQYSGYSVRYDYWGQGTQVTVSS | low polyreactivity |
| QVQLVESGGGLVQAGGSLRLSCAASGRIFQGYVMGWYRQAPGKERELVAAITTGGSTYYADSVKGRFTISRDNAKNTVYLQMNSLKPEDTAVYYCYAVVYVSGYNPYIFGYWGQGTQVTVSS | low polyreactivity |
| QVQLVESGAGLVQAGGSLRLSCAPSGSIFWWYAMVWYRQAPGKERELVAVISGGTSTYYADSVKGRFTISRDNAKNTVYLQMNSLKPEDTAVYYCNADVFSKVSYFRYIEYDYWGQGTQVTVSS | high polyreactivity |
| QVQLVESGGGLVQAGGSLRLSCAASGRTFQGNAMGWYRQAPGKERELVAVIDSGTSTDYADSVKGRFTISRDNAKNTVYLQMNSLKPEDTAVYYCAADGALGYNLRYDYWGQGTQVTVSS | low polyreactivity |
| QVQLVESGGGLVQAGGSLRLSCAASGSTFGWNAMGWYRKAPGKERELVAAISSYGGITYYADSVKGRFTISRDNEKNTVYLQMNSLKPEDTAVYYCAAERDDDWVNYWGQVTQVTVSS | low polyreactivity |
| QVQLVESGGGLVQAGGSLRLSCAPSGFIFAKYTMGWSRHAPGKERELVAAISANGGNTYYADSVKGRFTITRDNAKNTVYLQMNSLNPEDTAVYYCAALYKYSSYFDYWGQGTLVTVSS | high polyreactivity |
| QVQLVESGGGLVQAGCSLRLSCAASGRIFYLYTLGWYRQAPGKERELVAAITRAGRTYYADSVKGRFTISRDNAKNTFYLQMNSLKPEDTGVYYCAAAFLSRVQGYDSWGQGTQVTVSS | high polyreactivity |
| QVQLVESGGGLVQAGGSLRISCAASGSISVRNVMGWYRHAPGKERELVATIRRTGGSTSYADSVKGRFTISRDNAKNTVYLQMNSLKPEDPAVYYCAAVGYTTYRRYDYWGQGTQVTVSS | low polyreactivity |
| QVQLVESGGGLVQAGGSLRLSCAASGFIFYRYAMGWYRQAPGKERELVATISWSGGRTYYADSVKGRFTISRDNAKNTVYLQMNSLKPEDTAVYYCNAVNTHDYGYWGQGTQVTVSS | low polyreactivity |
| QVQRVESGGGIVQAGGSLRLTCAASGITFVSYTIGWSRQAPGKEREFVAAITWNVASTYYADSVKGRFTISRDNAKNTVYLQMNSLKPEDTAVYYCAAYSRFTSDYWGQGTQVTVSS | high polyreactivity |
| QVQLVESGGGLVQAGGSLRLSCAASGSTFVENAMGWYRQAPGKERELVAAITSSGGSTYYADSVKGRFSNSRDNAMNTVYLQMNSLKPEDTSVDYCGVDYIYDDAYNYWGQGTQVTVSS | high polyreactivity |
| QVQLVESGGGLVQAGGSLRLSCDASGFIFPYYAMGWYRQAPGKERELVARITRGGRTYYADSVKGRFTISRDNAKNTVYLQMNSLKPEDTAVYYCATTGSSYFHSFEYDYWGQGTQVTVSS | low polyreactivity |
